Publication PMC4004597

Experiments:
[1] = biological target: S. cerevisiae Nup57 of the short scNup49-Nup57-Nsp1 complex (S. cerevisiae) (UniProt P48837); test: SEC
[2] = biological target: S. cerevisiae Nup57 of the short scNup49-Nup57-Nsp1 complex (S. cerevisiae) (UniProt P48837); test: AUC
[3] = biological target: S. cerevisiae Nsp1 of the short scNup49-Nup57-Nsp1 complex (S. cerevisiae) (UniProt P14907); test: SEC
[4] = biological target: S. cerevisiae Nsp1 of the short scNup49-Nup57-Nsp1 complex (S. cerevisiae) (UniProt P14907); test: AUC

Sequence of S. cerevisiae Nup57 of the short scNup49-Nup57-Nsp1 complex (S. cerevisiae) (P48837 whole entry, one chain of several): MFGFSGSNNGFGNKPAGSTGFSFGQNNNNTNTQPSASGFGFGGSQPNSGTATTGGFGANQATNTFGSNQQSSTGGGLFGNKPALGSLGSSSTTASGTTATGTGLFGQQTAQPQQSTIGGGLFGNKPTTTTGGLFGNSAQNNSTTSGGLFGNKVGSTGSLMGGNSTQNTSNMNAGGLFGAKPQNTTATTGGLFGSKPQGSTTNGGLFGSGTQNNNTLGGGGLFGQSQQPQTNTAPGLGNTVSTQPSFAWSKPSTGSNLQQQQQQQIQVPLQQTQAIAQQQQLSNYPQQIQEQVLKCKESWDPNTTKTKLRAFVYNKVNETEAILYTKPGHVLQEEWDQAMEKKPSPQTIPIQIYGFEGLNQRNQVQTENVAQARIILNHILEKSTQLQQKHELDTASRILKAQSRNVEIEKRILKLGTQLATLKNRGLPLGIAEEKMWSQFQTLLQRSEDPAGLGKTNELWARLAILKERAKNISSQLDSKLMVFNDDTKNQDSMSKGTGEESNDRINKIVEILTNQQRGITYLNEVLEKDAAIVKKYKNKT

Substance | stoichiometry N [1] | stoichiometry N [2] | stoichiometry N [3] | stoichiometry N [4]
S. cerevisiae Nup49 of the short scNup49-Nup57-Nsp1 complex (from UniProt Q02199 1-472) (domain or fragment) | 1 | 1 |  | 
S. cerevisiae Nup57 of the short scNup49-Nup57-Nsp1 complex (from UniProt P48837 1-541) (domain or fragment) |  |  | 1 | 1
